From US20240066131A1 (Protagonist Therapeutics, Inc., priority 2020, published 2024)
Starred links: 1 amine or outer side, 2 acyl side, 3 side chain; linkers in the order of their positions; H or OH if unused. Non-standard residues stand in square brackets, D forms with d. Groups on a side chain read outwards from the residue. *: point of attachment. ButanoicP = (R)-4-(pyrrolidin-2-yl)butanoic acid, O=C(CCC[C@@H]1CCCN1[*:1])[*:2]; C18 diacid = O=C(O)CCCCCCCCCCCCCCCCC(=O)*; Dip = N[C@H](C(=O)O)C(c1ccccc1)c1ccccc1; Palmitoyl = CCCCCCCCCCCCCCCC(=O)*; NMeF = CN[C@@H](Cc1ccccc1)C(=O)O; β3hF = N[C@H](CC(=O)O)Cc1ccccc1; (n-hexyl)Gly = n-hexyl glycine; Tle = CC(C)(C)[C@H](N)C(=O)O; Isovaleryl = CC(C)CC(=O)*; (Me)Leu = methyl-leucine; AEEA = NCCOCCOCC(=O)O; Ahx = NCCCCCC(=O)O

T1: human ferroportin (SLC40A1) fused in frame with GFP, stably expressed in HEK293 cells (human, UniProt Q9NP59 1-571)
T1 sequence (looked up): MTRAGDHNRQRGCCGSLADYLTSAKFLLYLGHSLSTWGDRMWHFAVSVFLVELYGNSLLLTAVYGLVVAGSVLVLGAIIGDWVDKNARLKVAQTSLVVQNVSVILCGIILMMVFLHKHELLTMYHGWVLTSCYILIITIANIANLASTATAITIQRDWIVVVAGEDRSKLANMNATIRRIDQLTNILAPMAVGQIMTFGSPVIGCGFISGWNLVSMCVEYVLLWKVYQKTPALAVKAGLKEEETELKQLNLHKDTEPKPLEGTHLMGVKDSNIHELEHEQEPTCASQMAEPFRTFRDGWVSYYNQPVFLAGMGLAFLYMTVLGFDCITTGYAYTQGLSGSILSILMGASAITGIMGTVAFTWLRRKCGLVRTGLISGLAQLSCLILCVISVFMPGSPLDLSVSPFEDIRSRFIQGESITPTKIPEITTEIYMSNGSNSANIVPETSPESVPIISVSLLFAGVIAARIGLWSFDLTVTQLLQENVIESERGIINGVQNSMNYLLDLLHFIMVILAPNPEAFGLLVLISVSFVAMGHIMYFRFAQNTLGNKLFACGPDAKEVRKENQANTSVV

B1: Isovaleric Acid-E-T-H-[Dpa]-P-L-I-[(D)Lys]-[bhPhe]-[Lys(Ahx_Palm)]-[(D)Lys]-L-NH2 (peptide)
peptide: Isovaleryl-ETH[Dip]PLI[dK][β3hF]K([Ahx-Palmitoyl])[dK]L-NH2
SMILES: CCCCCCCCCCCCCCCC(=O)NCCCCCC(=O)NCCCC[C@H](NC(=O)C[C@H](Cc1ccccc1)NC(=O)[C@@H](CCCCN)NC(=O)[C@@H](NC(=O)[C@H](CC(C)C)NC(=O)[C@@H]1CCCN1C(=O)[C@@H](NC(=O)[C@H](Cc1c[nH]cn1)NC(=O)[C@@H](NC(=O)[C@H](CCC(=O)O)NC(=O)CC(C)C)[C@@H](C)O)C(c1ccccc1)c1ccccc1)[C@@H](C)CC)C(=O)N[C@H](CCCCN)C(=O)N[C@@H](CC(C)C)C(N)=O
B2: Isovaleric Acid-E-T-H-[Dpa]-P-S-I-[(D)Lys]-[bhPhe]-[Lys(Ahx_Palm)]-NH2 (peptide)
peptide: Isovaleryl-ETH[Dip]PSI[dK][β3hF]K([Ahx-Palmitoyl])-NH2
SMILES: CCCCCCCCCCCCCCCC(=O)NCCCCCC(=O)NCCCC[C@H](NC(=O)C[C@H](Cc1ccccc1)NC(=O)[C@@H](CCCCN)NC(=O)[C@@H](NC(=O)[C@H](CO)NC(=O)[C@@H]1CCCN1C(=O)[C@@H](NC(=O)[C@H](Cc1c[nH]cn1)NC(=O)[C@@H](NC(=O)[C@H](CCC(=O)O)NC(=O)CC(C)C)[C@@H](C)O)C(c1ccccc1)c1ccccc1)[C@@H](C)CC)C(N)=O
B3: Isovaleric Acid-E-T-H-[Dpa]-P-A-[Lys(Ac)]-NH2 (peptide)
peptide: Isovaleryl-ETH[Dip]PAK(Ac)-NH2
SMILES: CC(=O)NCCCC[C@H](NC(=O)[C@H](C)NC(=O)[C@@H]1CCCN1C(=O)[C@@H](NC(=O)[C@H](Cc1c[nH]cn1)NC(=O)[C@@H](NC(=O)[C@H](CCC(=O)O)NC(=O)CC(C)C)[C@@H](C)O)C(c1ccccc1)c1ccccc1)C(N)=O
B4: Isovaleric Acid-E-T-H-[Dpa]-[ButanoicP]-[bhPhe]-[Lys(Ahx_Palm)]-NH2 (peptide)
peptide: Isovaleryl-ETH[Dip][ButanoicP][β3hF]K([Ahx-Palmitoyl])-NH2
SMILES: CCCCCCCCCCCCCCCC(=O)NCCCCCC(=O)NCCCC[C@H](NC(=O)C[C@H](Cc1ccccc1)NC(=O)CCC[C@@H]1CCCN1C(=O)[C@@H](NC(=O)[C@H](Cc1c[nH]cn1)NC(=O)[C@@H](NC(=O)[C@H](CCC(=O)O)NC(=O)CC(C)C)[C@@H](C)O)C(c1ccccc1)c1ccccc1)C(N)=O
B5: Isovaleric Acid-E-T-H-[Dpa]-P-I-[(D)Lys]-[bhPhe]-[Lys(Ahx_Palm)]-NH2 (peptide)
peptide: Isovaleryl-ETH[Dip]PI[dK][β3hF]K([Ahx-Palmitoyl])-NH2
SMILES: CCCCCCCCCCCCCCCC(=O)NCCCCCC(=O)NCCCC[C@H](NC(=O)C[C@H](Cc1ccccc1)NC(=O)[C@@H](CCCCN)NC(=O)[C@@H](NC(=O)[C@@H]1CCCN1C(=O)[C@@H](NC(=O)[C@H](Cc1c[nH]cn1)NC(=O)[C@@H](NC(=O)[C@H](CCC(=O)O)NC(=O)CC(C)C)[C@@H](C)O)C(c1ccccc1)c1ccccc1)[C@@H](C)CC)C(N)=O
B6: Isovaleric Acid-R-T-H-[Dpa]-P-A-I-[Lys(1PEG2_1PEG2_Ahx_C18_Diacid)]-[bhPhe]-[(D)Lys]-NH2 (peptide)
peptide: Isovaleryl-RTH[Dip]PAIK([AEEA-AEEA-Ahx-C18 diacid])[β3hF][dK]-NH2
SMILES: CC[C@H](C)[C@H](NC(=O)[C@H](C)NC(=O)[C@@H]1CCCN1C(=O)[C@@H](NC(=O)[C@H](Cc1c[nH]cn1)NC(=O)[C@@H](NC(=O)[C@H](CCCNC(=N)N)NC(=O)CC(C)C)[C@@H](C)O)C(c1ccccc1)c1ccccc1)C(=O)N[C@@H](CCCCNC(=O)COCCOCCNC(=O)COCCOCCNC(=O)CCCCCNC(=O)CCCCCCCCCCCCCCCCC(=O)O)C(=O)N[C@H](CC(=O)N[C@H](CCCCN)C(N)=O)Cc1ccccc1
B7: Isovaleric Acid-L-T-H-[Dpa]-P-L-I-[Lys(Ahx_Palm)]-[(Me)Phe]-NH2 (peptide)
peptide: Isovaleryl-LTH[Dip]PLIK([Ahx-Palmitoyl])[NMeF]-NH2
SMILES: CCCCCCCCCCCCCCCC(=O)NCCCCCC(=O)NCCCC[C@H](NC(=O)[C@@H](NC(=O)[C@H](CC(C)C)NC(=O)[C@@H]1CCCN1C(=O)[C@@H](NC(=O)[C@H](Cc1c[nH]cn1)NC(=O)[C@@H](NC(=O)[C@H](CC(C)C)NC(=O)CC(C)C)[C@@H](C)O)C(c1ccccc1)c1ccccc1)[C@@H](C)CC)C(=O)N(C)[C@@H](Cc1ccccc1)C(N)=O
B8: Isovaleric Acid-E-T-H-[Dpa]-P-A-I-[Lys(Ac)]-NH2 (peptide)
peptide: Isovaleryl-ETH[Dip]PAIK(Ac)-NH2
SMILES: CC[C@H](C)[C@H](NC(=O)[C@H](C)NC(=O)[C@@H]1CCCN1C(=O)[C@@H](NC(=O)[C@H](Cc1c[nH]cn1)NC(=O)[C@@H](NC(=O)[C@H](CCC(=O)O)NC(=O)CC(C)C)[C@@H](C)O)C(c1ccccc1)c1ccccc1)C(=O)N[C@@H](CCCCNC(C)=O)C(N)=O
B9: Isovaleric Acid-[(D)Arg]-T-H-[Dpa]-P-A-I-[Lys(1PEG2_1PEG2_Ahx_C18_Diacid)]-[bhPhe]-[(D)Lys]-NH2 (peptide)
peptide: Isovaleryl-[dR]TH[Dip]PAIK([AEEA-AEEA-Ahx-C18 diacid])[β3hF][dK]-NH2
SMILES: CC[C@H](C)[C@H](NC(=O)[C@H](C)NC(=O)[C@@H]1CCCN1C(=O)[C@@H](NC(=O)[C@H](Cc1c[nH]cn1)NC(=O)[C@@H](NC(=O)[C@@H](CCCNC(=N)N)NC(=O)CC(C)C)[C@@H](C)O)C(c1ccccc1)c1ccccc1)C(=O)N[C@@H](CCCCNC(=O)COCCOCCNC(=O)COCCOCCNC(=O)CCCCCNC(=O)CCCCCCCCCCCCCCCCC(=O)O)C(=O)N[C@H](CC(=O)N[C@H](CCCCN)C(N)=O)Cc1ccccc1
B10: Isovaleric Acid-E-T-H-[Dpa]-P-A-I-[Lys(Ahx_Palm)]-[bhPhe]-NH2 (peptide)
peptide: Isovaleryl-ETH[Dip]PAIK([Ahx-Palmitoyl])[β3hF]-NH2
SMILES: CCCCCCCCCCCCCCCC(=O)NCCCCCC(=O)NCCCC[C@H](NC(=O)[C@@H](NC(=O)[C@H](C)NC(=O)[C@@H]1CCCN1C(=O)[C@@H](NC(=O)[C@H](Cc1c[nH]cn1)NC(=O)[C@@H](NC(=O)[C@H](CCC(=O)O)NC(=O)CC(C)C)[C@@H](C)O)C(c1ccccc1)c1ccccc1)[C@@H](C)CC)C(=O)N[C@H](CC(N)=O)Cc1ccccc1
B11: Isovaleric Acid-L-T-H-[Dpa]-P-A-I-[Lys(Ahx_Palm)]-[(Me)Phe]-NH2 (peptide)
peptide: Isovaleryl-LTH[Dip]PAIK([Ahx-Palmitoyl])[NMeF]-NH2
SMILES: CCCCCCCCCCCCCCCC(=O)NCCCCCC(=O)NCCCC[C@H](NC(=O)[C@@H](NC(=O)[C@H](C)NC(=O)[C@@H]1CCCN1C(=O)[C@@H](NC(=O)[C@H](Cc1c[nH]cn1)NC(=O)[C@@H](NC(=O)[C@H](CC(C)C)NC(=O)CC(C)C)[C@@H](C)O)C(c1ccccc1)c1ccccc1)[C@@H](C)CC)C(=O)N(C)[C@@H](Cc1ccccc1)C(N)=O
B12: Isovaleric Acid-E-T-H-[Dpa]-P-[t-BuGly]-I-[Lys(Ahx_Palm)]-[bhPhe]-NH2 (peptide)
peptide: Isovaleryl-ETH[Dip]P[Tle]IK([Ahx-Palmitoyl])[β3hF]-NH2
SMILES: CCCCCCCCCCCCCCCC(=O)NCCCCCC(=O)NCCCC[C@H](NC(=O)[C@@H](NC(=O)[C@@H](NC(=O)[C@@H]1CCCN1C(=O)[C@@H](NC(=O)[C@H](Cc1c[nH]cn1)NC(=O)[C@@H](NC(=O)[C@H](CCC(=O)O)NC(=O)CC(C)C)[C@@H](C)O)C(c1ccccc1)c1ccccc1)C(C)(C)C)[C@@H](C)CC)C(=O)N[C@H](CC(N)=O)Cc1ccccc1

These binders were tested against T1, human ferroportin (SLC40A1) fused in … (assay: cell-based or functional assay).
For B1, the “FPN EC50” value was 4.5 nM. For Isovaleryl-ETH[Dip]PLIK([Ahx-Palmitoyl])[NMeF]-NH2 [Isovaleric Acid-E-T-H-[Dpa]-P-L-I-[Lys(Ahx_Palm)]-[(Me)Phe]-NH2], the “FPN EC50” value was 27.2 nM. With B2 the “FPN EC50” value was 46.3 nM. In the case of Isovaleryl-LTH[Dip]PLIK([Ahx-Palmitoyl])[(Me)Leu]-NH2 [Isovaleric Acid-L-T-H-[Dpa]-P-L-I-[Lys(Ahx_Palm)]-[(Me)Leu]-NH2], the “FPN EC50” value is reported as 287 nM. For Isovaleryl-LTH[Dip]P[(Me)Leu]IK([Ahx-Palmitoyl])[NMeF]-NH2 [Isovaleric Acid-L-T-H-[Dpa]-P-[(Me)Leu]-I-[Lys(Ahx_Palm)]-[(Me)Phe]-NH2], the “FPN EC50” value was 2290 nM. With B3 the “FPN EC50” value was 35700 nM. In the case of Isovaleryl-LTH[Dip]P[(Me)Leu]IK([Ahx-Palmitoyl])L-NH2 [Isovaleric Acid-L-T-H-[Dpa]-P-[(Me)Leu]-I-[Lys(Ahx_Palm)]-L-NH2], the “FPN EC50” value is reported as 2760 nM. XETHXPX (N-term Isovaleric Acid; Dpa4; Lys(Ac)6; C-term NH2) [Isovaleric Acid-E-T-H-[Dpa]-P-[Lys(Ac)]-NH2] was tested, and the “FPN EC50” value was 8410 nM. In the case of B4, the “FPN EC50” value is reported as 71.2 nM. With Isovaleryl-ETH[Dip]PAI[dK]K(Ac)-NH2 [Isovaleric Acid-E-T-H-[Dpa]-P-A-I-[(D)Lys]-[Lys(Ac)]-NH2] the “FPN EC50” value was 814 nM. With B5 the “FPN EC50” value was 22.9 nM. For B6, the “FPN EC50” value was 48.5 nM. With B7 the “FPN EC50” value was 764 nM. B8 was tested, and the “FPN EC50” value was 1040 nM. In the case of Isovaleryl-ETH[Dip]P[(n-hexyl)Gly]IK([Ahx-Palmitoyl])[β3hF]-NH2 [Isovaleric Acid-E-T-H-[Dpa]-P-[(n-hexyl)Gly]-I-[Lys(Ahx_Palm)]-[bhPhe]-NH2], the “FPN EC50” value is reported as 427 nM. In the case of B9, the “FPN EC50” value is reported as 732 nM. In the case of Isovaleryl-ETH[Dip]PAIK([AEEA-AEEA-Ahx-C18 diacid])-NH2 [Isovaleric Acid-E-T-H-[Dpa]-P-A-I-[Lys(1Peg2_1Peg2_Ahx_C18_Diacid)]-NH2], the “FPN EC50” value is reported as 593 nM. In the case of B10, the “FPN EC50” value is reported as 31.9 nM. In the case of Isovaleryl-LTH[Dip]PAIK([AEEA-AEEA-Ahx-C18 diacid])[β3hF][dK]-NH2 [Isovaleric Acid-L-T-H-[Dpa]-P-A-I-[Lys(1PEG2_1PEG2_Ahx_C18_Diacid)]-[bhPhe]-[(D)Lys]-NH2], the “FPN EC50” value is reported as 65.7 nM. For Isovaleryl-LTH[Dip]PAIK([Ahx-Palmitoyl])[(Me)Leu]-NH2 [Isovaleric Acid-L-T-H-[Dpa]-P-A-I-[Lys(Ahx_Palm)]-[(Me)Leu]-NH2], the “FPN EC50” value was 508 nM. B11 was tested, and the “FPN EC50” value was 1750 nM. For B12, the “FPN EC50” value was 40.3 nM.
